The text below walks through data of patent US20260258115A1 (MAPP BIOPHARMACEUTICAL, published 2026).

The target of assay [1] is RSV prefusion F (preF), DS-Cav1 (respiratory syncytial virus, UniProt P03420 26-513). In words: BLI, IgG on sensor, 100 nM antigen. On the technique in general: Biolayer interferometry detects binding as a change in optical thickness at a sensor tip.
Assay [2] concerns the target RSV fusion glycoprotein (RSV F) on RSV-A2 virus (respiratory syncytial virus, UniProt P03420 26-574). Put plainly: cell-based or functional assay.
For assay [3], the target named is RSV postfusion F (postF), F deltaFP (respiratory syncytial virus, UniProt P03420 26-513). In words: BLI, IgG on sensor.

Where only a bound is given, the exact number is not on record here.

B1: ADI-41419 (antibody, V domains shown)
VH: EVQLVESGGGLVQPGRSLRLSCAASGFTFDDYAMHWVRQAPGKGLEWVSGISWNSGSVGYSDSVKGRFTISRDNAKSSLYLQMNNLRAEDTALYYCARDMAHTQDYFDTSEYDSWGQGTLVTVSS
VL: QPVLTQPASVSGSPGQSITISCTGTSSDIGAYNYVSWYQQHPGKAPKLVVYEVNNRPSGISNRFSGSKSGNTASLTISGLQAEDEADYYCSSYTVSATLVFGGGTKLTVL
notes: IgG1
Molecule B1 yielded a Kd in assay [1] of 0.305 nM. Moreover, in assay [2], the “Neutralization IC50 (RSV subtype A)” value amounted to 0.01 µg/mL. In assay [3], the binding result is “no binding (tested: 100 nM antigen)”.

B2: ADI-41356 (antibody, V domains shown)
VH: QVQLVQSGAEVKKPGASVKVSCKASGYTFTNYDINWVRQATGQGLEWMGWMNRNNGNTGYARKFQGRVTMTRNTSISTAYMELSSLRSEDTAVYYCARGGDFYAMDVWGQGTTVTVSS
VL: SYELTQPPSVSVSPGQTASITCSGDKLGDKYASWYQQKPGQSPVLVIYQDTKRPSGVPERFSGSNSGNTATLTISGTQAVDEADYYCQVWDGSIAFGGGTKVTVL
notes: IgG1
Take B2: binding in assay [1] was characterised by a dissociation constant (Kd) of 0.725 nM. The “Neutralization IC50 (RSV subtype A)” value in assay [2] is 0.115 µg/mL. For the same molecule, the binding result in assay [3] was “no binding (tested: 100 nM antigen)”.

B3: ADI-41377 (antibody, V domains shown)
VH: QVQLQQSGPGLVKPSQTLSLTCAISGDSVSSDSATWNWIRQSPSRGLEWLGRAYYRSKWYYDYAPSVKSRLTINPDTSKNQFSLQLTSVTPQDTAVYFCARDLPPLEYFDGSGYYFLDHWGQGTLVTVSS
VL: SYELTQPPSVSVAPGQTARLSCGGHNIGSKSVQWYQQKPDQAPVLVVYDDHDRPSGIPDRFSGSNSGDMATLTISRVEAGDEADYYCQVCESGRDPMVFGGGTKVTVL
notes: IgG1; also called Ab 674
Turning to B3, the Kd in assay [1] was found to be 1.74 nM. In assay [2], the “Neutralization IC50 (RSV subtype A)” value was determined as 0.24 µg/mL. Besides, the binding result in assay [3] is listed as “no binding (tested: 100 nM antigen)”.

B4: ADI-41398 (antibody, V domains shown)
VH: EVQLLESGAEVKKPGASVKVSCKASGYTFTNYGISWVRQAPGQGLEWMGWISAYNGNTNYAQKLQGRVTMTTDTSTSTAYMELRSLRSDDTAVYYCARDGGVIAAATLGYWGQGTLVTVSS
VL: EIVLTQSPLSLPVTLGQPASISCRSSQSLVYSDGNTYLSWFQQRPGQSPRRLIYKISNRDSGVPNRFSGSGSGTDFTLKISRVEAEDVGIYYCMQGIYWPPTFGQGTKVEIK
notes: IgG1; also called Ab 691
In assay [1], B4 came in with a dissociation constant Kd of 0.6 nM. In assay [2], the “Neutralization IC50 (RSV subtype A)” value stood at 0.17 µg/mL. In addition, the binding result in assay [3] is “no binding (tested: 100 nM antigen)”.

B5: ADI-41416 (antibody, V domains shown)
VH: EVQLVESGGGLVKPGGSLRLSCAASGFKFSSYTMNWVRQAPGKGLEWVSSITGGSSFINYADSVKGRFTISRDNAKNSLYLQMVSLRAEDTAVYYCARDLSSHITIFGAVSDYWGRGTTVTVSS
VL: QSVLTQPPSVSGAPGQRVTISCTGSSSNIGAGYDAHWFQQLPGSAPKLLIYANTNRPSGVPDRFSGSKSGTSASLAITGLQAEDEADYYCQSYDSTLSVVFGGGTKLTVL
notes: IgG1
B5 registered a dissociation constant (Kd) in assay [1] of 0.444 nM. The “Neutralization IC50 (RSV subtype A)” value in assay [2] was 0.05 µg/mL. Also, in assay [3], the binding result was “no binding (tested: 100 nM antigen)”.

B6: ADI-41401 (antibody, V domains shown)
VH: EVQLLESGGGLVHPGRSLRLSCAASGFTFGDYAMHWVRQAPGKGLEWVSGISWNSDTIEYADSVKGRFTISRDNAKNSLYLQMNSLRAEDTALYYCAKDFGSSWEAYFDYWGQGTLVTVSS
VL: DIVLTQSPSYLSASVGDRVTITCRASQSISTYLNWYQQKPGKAPKLLISAASSLQSGVTSRFSGSGSGTDFSLTISSLQPEDFATYYCQQSYSTALTFGGGTKVEIK
notes: IgG1
Consider B6, for which the Kd in assay [1] was determined as 3.22 nM. The “Neutralization IC50 (RSV subtype A)” value in assay [2] was more than 25 µg/mL. For the same molecule, the binding result in assay [3] is reported as “no binding (tested: 100 nM antigen)”.

As a reminder, the Kd is the equilibrium constant for the complex coming apart.
